US20030139571A1
“And” between values parts separate entries of the source, which are not always exact repeats. Equal values may be shown once.

Columns and labels:
gp120JR-FL (HIV-1 JR-FL) = gp120JR-FL (HIV-1 JR-FL) (UniProt P20871); assay: cell-based or functional assay
[1] = molecular target: gp120DH123/CD4-IgG2 complex (HIV-1 DH123); assay: SPR, complex 50 nM over immobilised sulfopeptide 2-18 with MAb (150 mM [sic])
[2] = molecular target: gp120JR-FL/CD4-IgG2 complex (HIV-1 JR-FL)
[3] = molecular target: biotinylated CCR5 Nt sulfopeptide 2-18; assay: direct ELISA, biotinylated peptide on streptavidin plate, complex titrated (CD4-IgG2 concentration), anti-human IgG-HRP
[4] = molecular target: biotinylated CCR5 Nt sulfopeptide 2-18; assay: peptide ELISA, gp120/CD4-IgG2 complexes
[5] = molecular target: biotinylated CCR5 Nt sulfopeptide 2-18
[6] = molecular target: CCR5 on L1.2-CCR5+ cells (Homo sapiens (Human)) (UniProt P51681)
[7] = molecular target: CCR5 on L1.2-CCR5+ cells (Homo sapiens (Human)) (UniProt P51681); remark: listed apart in the source
[8] = molecular target: biotinylated CCR5 Nt sulfopeptide 8-15; assay: ELISA, biotinylated peptide on streptavidin plate, anti-human IgG-HRP
[9] = molecular target: biotinylated CCR5 Nt sulfopeptide 10-15; assay: as above
[10] = molecular target: biotinylated CCR5 Nt sulfopeptide 6-16; assay: as above
[11] = molecular target: biotinylated CCR5 Nt sulfopeptide 10-18; assay: as above

CCR5 Nt peptide S-3/10/14 was tested, and the inhibition of entry of Nlluc+env- particles pseudotyped with HIV-1JR-FL envelope (luciferase; HeLa-CD4+CCR5+ and U87MG-CD4+CCR5+ cells; peptide 100 µM) (gp120JR-FL (HIV-1 JR-FL)) was 50%.
CCR5 Nt peptide S-10/14 gave an inhibition of entry of Nlluc+env- particles pseudotyped with HIV-1JR-FL envelope (luciferase; HeLa-CD4+CCR5+ and U87MG-CD4+CCR5+ cells; peptide 100 µM) (gp120JR-FL (HIV-1 JR-FL)) of 50%.
Substance anti-V3 loop MAb 19b (antibody) has a % inhibition of complex binding to sulfopeptide 2-18 [1] of 80% and a % inhibition of complex binding to sulfopeptide 2-18 [2] greater than 90%.
For anti-gp120 MAb 17b (antibody), the % inhibition of complex binding to sulfopeptide 2-18 [1] was greater than 90% and the % inhibition of complex binding to sulfopeptide 2-18 [2] was greater than 90%.
anti-gp120 MAb 48d (antibody) was tested, and the % inhibition of complex binding to sulfopeptide 2-18 [1] was greater than 90% and the % inhibition of complex binding to sulfopeptide 2-18 [2] was greater than 90%.
Work on gp120DH123/CD4-IgG2 complex yielded an IC50 [3] of 5 nM and a fold less binding than gp120JR-FL [4] of 5 fold.
gp120JR-FL D324A/CD4-IgG2 complex showed a fold decrease in binding vs wild-type gp120JR-FL [5] greater than 10 fold.
For gp120JR-FL F315A/CD4-IgG2 complex, the fold decrease in binding vs wild-type gp120JR-FL [6] was 5 fold and 10 fold.
In the case of gp120JR-FL G310A/CD4-IgG2 complex, the fold decrease in binding vs wild-type gp120JR-FL [6] is reported as 10 fold and 5 fold.
For gp120JR-FL I322A/CD4-IgG2 complex, the fold decrease in binding vs wild-type gp120JR-FL [5] was greater than 10 fold.
Substance gp120JR-FL I325A/CD4-IgG2 complex has a fold decrease in binding vs wild-type gp120JR-FL [5] greater than 10 fold.
With gp120JR-FL I420A/CD4-IgG2 complex the fold decrease in binding vs wild-type gp120JR-FL [5] was 5 fold and 10 fold.
In the case of gp120JR-FL K421A/CD4-IgG2 complex, the fold decrease in binding vs wild-type gp120JR-FL [5] is reported as 5 fold and 10 fold.
Substance gp120JR-FL N301A/CD4-IgG2 complex has a fold decrease in binding vs wild-type gp120JR-FL [5] greater than 10 fold.
With gp120JR-FL P311A/CD4-IgG2 complex the fold decrease in binding vs wild-type gp120JR-FL [6] was 5 fold and 10 fold.
gp120JR-FL Q422A/CD4-IgG2 complex was tested, and the fold decrease in binding vs wild-type gp120JR-FL [5] was 5 fold and 10 fold.
With gp120JR-FL R298A/CD4-IgG2 complex the fold decrease in binding vs wild-type gp120JR-FL [5] was greater than 10 fold.
gp120JR-FL R313A/CD4-IgG2 complex was tested, and the fold decrease in binding vs wild-type gp120JR-FL [6] was 5 fold and 10 fold.
Substance gp120JR-FL R326A/CD4-IgG2 complex has a fold decrease in binding vs wild-type gp120JR-FL [5] greater than 10 fold.
In the case of gp120JR-FL R419A/CD4-IgG2 complex, the fold decrease in binding vs wild-type gp120JR-FL [5] is reported as 5 fold and 10 fold.
With “gp120JR-FL R440A (from UniProt P20871 32-503)” the fold lower avidity than wild type (CD4-IgG2) was 5 fold and 10 fold.
With gp120JR-FL R444A/CD4-IgG2 complex the fold decrease in binding vs wild-type gp120JR-FL [5] was 5 fold and 10 fold.
With “gp120JR-FL R469A (from UniProt P20871 32-503)” the fold lower avidity than wild type (CD4-IgG2) was 5 fold and 10 fold.
For gp120JR-FL S306A/CD4-IgG2 complex, the fold decrease in binding vs wild-type gp120JR-FL [6] was 5 fold and 10 fold.
With gp120JR-FL T303A/CD4-IgG2 complex the fold decrease in binding vs wild-type gp120JR-FL [5] was greater than 10 fold.
For “gp120JR-FL W427A (from UniProt P20871 32-503)”, the fold lower avidity than wild type (CD4-IgG2) was 5 fold and 10 fold.
gp120JR-FL Y316A/CD4-IgG2 complex was tested, and the fold decrease in binding vs wild-type gp120JR-FL [6] was 5 fold and 10 fold.
With gp120JR-FL/CD4-IgG2 complex the IC50 [3] was 1 nM, the m.f.i. [7] was 40 m.f.i and the fold less avid than for sulfopeptide 2-18 [8] was greater than 10 fold. It also gave a fold less avid than for sulfopeptide 2-18 [9] greater than 10 fold, a fold less avid than for sulfopeptide 2-18 [10] greater than 10 fold and a fold lower avidity than for sulfopeptide 2-18 [11] of 3 fold.
